# ± gives the standard deviation.
# Assay: protein stability index of a GFP-peptide fusion (GPS, HEK-293T) (PSI 1-6); higher = more stable
# [1] = treatment: DMSO, c terminus: a fixed tail appended
# [2] = treatment: MLN4924 1 uM, 8 h, c terminus: a fixed tail appended
# [3] = treatment: DMSO, c terminus: native
# [4] = treatment: MLN4924 1 uM, 8 h, c terminus: native
# 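Further: 24-mer peptide tiles fused after GFP, lentivirally expressed, FACS-sorted into six equal bins by GFP/DsRed ratio, decoded by Illumina sequencing, PSI is the read-weighted mean bin number.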
Sequence,protein stability index [1],protein stability index [2],protein stability index [3],protein stability index [4]
MSLEGTEKASWLGEQPQFWSKTQV [ELF3],3.31 ± 0.42,3.33 ± 0.16,–,–
ISNIDTTIEGTSDDLTVVDAASLR [MFF],5.09 ± 0.27,4.82 ± 0.56,–,–
ATSVTVPGAGVPSGSGGTVAPATM [ZBTB22],4.7 ± 0.38,4.64 ± 0.43,–,–
AYYRGAVGALLVYDIAKHLTYENV [RAB11A],3.11 ± 0.5,2.89 ± 0.59,–,–
YTCHECGDSFSHSSNRIRHLRTHT [ZNF263],3.04 ± 0.18,3.32 ± 0.33,–,–
IINDTYSEVKEELAGQKDELQLSD [PKD2L1],5.35 ± 0.23,5.28 ± 0.22,–,–
SRRFEAVGWWALLALVTLLSFATR [POMT2],2.29 ± 0.28,2.09 ± 0.33,–,–
SKNDNGKPDSVGLPPCAVRNLQDL [PCMTD1],4.85 ± 0.44,4.58 ± 0.35,–,–
VSKVVKGGSSGKGTTLRGRSDADL [OAS1],4.36 ± 0.11,4.48 ± 0.15,–,–
FSDLNSTRGDADMYDLPKKEDALL [EMD],4.77 ± 0.24,4.9 ± 0.05,–,–
PQAPDPEEEENRDSQQPGKRRKDS [FANCE],5.74 ± 0.21,5.62 ± 0.3,–,–
WEQTHLTYRIENYTPDLPRADVDH [MMP1],3.95 ± 0.31,3.53 ± 0.3,–,–
PVVWWLNLLSIALYLLSGSIIAVA [POMT2],3.27 ± 0.14,3.43 ± 0.18,–,–
QKNFNNLYGTKGNYTSRVWEYSSS [TRIM29],2.31 ± 0.4,2.51 ± 0.12,–,–
SMPCSTDKENGENVGLESKYLKKR [SASS6],4.62 ± 0.4,5.08 ± 0.19,–,–
SSTKPPKSRRKAALSSPRSRKNAT [INTS3],4.89 ± 0.19,5.04 ± 0.14,–,–
KLHEIFRGLHEDLQGVPERLLGTA [VTI1B],2.48 ± 0.3,2.72 ± 0.74,–,–
GETDEVTKTEDRELVLRKDCPKIV [ZSCAN9],5.48 ± 0.14,5.44 ± 0.24,–,–
LKHPNIVRLHDSISEEGHHYLIFD [CAMK2A],2.58 ± 0.32,2.79 ± 0.25,–,–
MGTEPAPSAPEALHSLPGVSLSLE [TBX6],4.28 ± 0.22,4.41 ± 0.24,–,–
NGIHVCMVFEVLGHHLLKWIIKSN [SRPK2],3.01 ± 0.14,2.96 ± 0.29,–,–
PRGRLDLATQSLTVETCRALGKLL [LRRC45],2.38 ± 0.28,2.31 ± 0.31,–,–
EEEGPSTFPDLESEFQAALSRKVA [MAGEA3],4.95 ± 0.22,5.12 ± 0.22,–,–

Sequence,protein stability index [1],protein stability index [2],protein stability index [3],protein stability index [4]
VLQIDNARLAADDFRVKYETELAM [KRT18],3.04 ± 0.12,3.3 ± 0.33,–,–
GSENRNHRLLNMARNNNDPGRLTE [RNF180],4.08 ± 0.22,4.26 ± 0.24,–,–
PDYGVPSSAASLIDFLRVVRNQQS [PTPN9],2.84 ± 0.24,3.14 ± 0.25,–,–
KEAVQNERDRISTRRSSYEDSSLP [HNF4A],5.07 ± 0.31,5.14 ± 0.25,–,–
SGGRGPQGDKAIREQGPREQEPEL [PBXIP1],5.44 ± 0.19,5.5 ± 0.25,–,–
TKLSLLAIHGYTVWAHNLIAIARL [FBXO33],3.19 ± 0.36,3.22 ± 0.23,–,–
DWVVVKEPVIKVAAIDNGLAFPLK [PI4K2A],2.52 ± 0.43,2.94 ± 0.29,–,–
PYAMKPIDYYTETKILQERAVLGA [NSDHL],2.85 ± 0.14,3.06 ± 0.18,–,–
AVNQEAMNNAQRIEKWVILEKDFS [ACSBG2],3.16 ± 0.31,3.47 ± 0.46,–,–
HQRSSSESYTQSFQSRKPFFSWW [PI4K2A],–,–,3.41 ± 0.27,3.7 ± 0.3
LLQRRKRENMSDGDTSATESGDEV [KMT2E],5.52 ± 0.17,5.32 ± 0.38,–,–
YTFIIVPKMLVDLLSQKKTISFLG [OR10K2],3.09 ± 0.14,2.7 ± 0.28,–,–
DLDANLRKLNSRLFVIRGQPADVF [CRY1],2.07 ± 0.29,2.55 ± 0.4,–,–
WFSLASVIFLLLFAPFIVYYFIMA [DHCR7],2.27 ± 0.53,2.34 ± 0.44,–,–
GGMQALGLHLTDPSQRLVQNCLWT [CTNNB1],2.11 ± 0.13,2.1 ± 0.44,–,–
RYVEFNLLYDRGTKFGLFTPGSRI [CPOX],2.52 ± 0.75,2.26 ± 0.27,–,–
ELDAIIEEVDEDGSGTIDFEEFLV [TNNC2],4.4 ± 0.22,4.33 ± 0.23,–,–
IDYKTTTILLDGRRVRLELWDTSG [RAB40C],2.25 ± 0.61,2.21 ± 0.26,–,–
ASSGLTVEVDAPKSQDLAKIMADI [KRT18],4.45 ± 0.3,4.57 ± 0.057,–,–
KLLNRCCHLFSTYVASHKIEKEEQ [ACBD3],2.21 ± 0.1,2.23 ± 0.28,–,–
MDLRTAVYNAARDGKLQLLQKLLS [FEM1A],2.21 ± 0.26,2.28 ± 0.24,–,–
VLGINRAYGKNSLSKNLIKMLSKA [AUH],–,2.244 ± 0.021,–,–
LVVQIDNAKLAADDFRTKYQTEQS [KRT33B],3.18 ± 0.19,3.36 ± 0.16,–,–

Sequence,protein stability index [1],protein stability index [2],protein stability index [3],protein stability index [4]
PIPWFLPESRSLPSSPLRLGSYKA [PPEF2],2.99 ± 0.16,3.11 ± 0.48,–,–
ISLAKGPPGPKGDQGDEGKEGRPG [SCARA5],5.24 ± 0.26,5.485 ± 0.034,–,–
NLLISLTFLTVTDLIGLPWVCFIY [SLC2A12],3.36 ± 0.45,3.19 ± 0.63,–,–
SDSGKDLPEPSKRGPPHGWPKLCP [MYCL],4.27 ± 0.1,4.63 ± 0.078,–,–
SIPLMGFEFEVRVCDSCHEAITDE [WDFY2],3.38 ± 0.17,3.54 ± 0.32,–,–
LVEAGAHTDMTNKQNKTPLDKSTT [FEM1B],5.34 ± 0.29,5.27 ± 0.21,–,–
MDMDQDSEEEKELYLNLALHLASD [PDS5B],3.82 ± 0.23,4.04 ± 0.081,–,–
GRKPERRRLKTTRLKEYTIKSHSS [DAPK3],3.92 ± 0.17,4.06 ± 0.29,–,–
PIVPKIAGDGDTSNFETYPENDWD [PRKX],5.51 ± 0.17,5.37 ± 0.32,–,–
RSVKVICLGSLASKLSRKYVKAKK [FAN1],2.37 ± 0.25,2.37 ± 0.28,–,–
DPDECGSDYISEFRFAPNHTKELE [EPB41L3],2.91 ± 0.91,3.67 ± 0.79,–,–
LEEVNDEGYTPLMEAAREGHEEMV [ANKRD17],5.49 ± 0.08,5.52 ± 0.23,–,–
FLGLFFIVRFLESNWFVWVTQMNH [FADS1],3.69 ± 0.72,3.25 ± 0.32,–,–
MPLLRDIIKMATARQETKEMARKV [ZER1],2.99 ± 0.3,3.06 ± 0.19,–,–
PSGTPTNLRRHVPDLESGSESGAD [DLC1],5.47 ± 0.33,5.46 ± 0.1,–,–
CLTQSTAAPAVRASSSPVTLRQKT [SLA],4.02 ± 0.35,4.35 ± 0.052,–,–
QHLPAQEQWDRLLVLYPTSLAIFS [PLEKHN1],2.55 ± 0.53,2.6 ± 0.59,–,–
NLWYSFQDEEDMFMVVDLLLGGDL [STK32A],2.41 ± 0.69,2.2 ± 0.39,–,–
PRYREDPCKQCKKKYVKGDVSLCR [FBXO34],2.99 ± 0.45,3.35 ± 0.24,–,–
AKQKLDFFIRTSDSFDKFDFCEPS [PCMTD2],2.87 ± 0.26,3.02 ± 0.47,–,–
APPPADSAPQQNGQPLRPLVPDAS [PDLIM7],5.27 ± 0.12,5.37 ± 0.13,–,–
VLELLGPSLEDLFDLCDRTFSLKT [CSNK1G3],2.38 ± 0.57,2.36 ± 0.48,–,–
NEEIRAVGRLKRERSMSENAVRQN [MFF],5.15 ± 0.2,4.87 ± 0.27,–,–

Sequence,protein stability index [1],protein stability index [2],protein stability index [3],protein stability index [4]
PPQSPQGASSLPTTMNYPLWSQSY [MAGEA3],3.45 ± 0.21,3.47 ± 0.22,–,–
YVKVFEHFLENLDKSRKGELLKKS [PRIM1],1.96 ± 0.31,2.09 ± 0.48,–,–
EMRFAKMPDEPVEAPALPAPAAPM [BRD3],4.66 ± 0.078,4.8 ± 0.24,–,–
AKYPHDVVNHLSCDEARNHYGGVV [SPACA9],3.5 ± 0.27,3.58 ± 0.082,–,–
VFYCDPCRLRCHPPRGPLAKHRLV [TRIM9],2.19 ± 0.34,2.36 ± 0.29,–,–
MMRTQCLLGLRTFVAFAAKLWSFF [CTDNEP1],4.22 ± 0.2,4.02 ± 0.29,–,–
ADSMLMQGSRGLTDQAIFYAVTPL [HDAC6],2.54 ± 0.39,2.46 ± 0.44,–,–
GACYGDDACFVARHRSADVLGVAD [PPTC7],4.18 ± 0.34,4.817 ± 0.045,–,–
FFMTATQYFTNRLDMSQNVSLVTA [SLC29A1],3.04 ± 0.4,2.92 ± 0.47,–,–
QELELVLMISENNFLFRNAASTLT [ANKRD40],2.91 ± 0.82,3.28 ± 0.74,–,–
PVKKQLQGASWELQSLRPHDEDIK [ZNF396],4.62 ± 0.21,4.72 ± 0.38,–,–
FHINQTLREAHFHSLQHRGRPLT [FAM104A],–,–,2.3 ± 0.45,2.2 ± 0.29
TYVSPPGNEEEESKIFTTLDPASL [DDIT3],4.91 ± 0.26,5.08 ± 0.065,–,–
PPLPPPDDPATLGPHLGLRGVPQS [DYRK1B],4.9 ± 0.23,4.91 ± 0.14,–,–
SAILQFPSTLGRCKAFSTCVSHLI [OR10K2],2.5 ± 0.55,2.59 ± 0.3,–,–
ADSLDFDETFLATSFLQHPWDESG [FOXJ1],4.22 ± 0.087,4.08 ± 0.13,–,–
EEEISETGELVGPFVSAMPTPMPH [ZBED2],5.1 ± 0.2,5.17 ± 0.15,–,–
GRTCITDLQLTVGGAQASGTLIGV [MFSD9],2.33 ± 0.31,2.04 ± 0.3,–,–
PPLPGDMSTGPIAESWCYTQVKVV [SPOPL],2.27 ± 0.15,2.38 ± 0.33,–,–
KKFLTLGSKFRYSGRTQAQTRRAS [EPB41L3],3.27 ± 0.61,3.49 ± 0.41,–,–

# Source: the supplement of paper PMC10567573
